The results in this text go back to PMC7401805, “Tissue specific requirement of Drosophila Rcd4 for centriole duplication and ciliogenesis” (The Journal of Cell Biology, 2020).

Test [1] addresses T1, MBP-tagged Ana3-C1 fragment (amino acids 1195-1977) (Drosophila melanogaster, UniProt A1Z8X3 1195-1977).
T1 construct: Vector pKM596; also called MBP::Ana3 C1; Ana3-C terminal 1; source: E. coli Rosetta BL21(DE3), purified; not shown: MBP, N-terminal, kept
T1 sequence (looked up): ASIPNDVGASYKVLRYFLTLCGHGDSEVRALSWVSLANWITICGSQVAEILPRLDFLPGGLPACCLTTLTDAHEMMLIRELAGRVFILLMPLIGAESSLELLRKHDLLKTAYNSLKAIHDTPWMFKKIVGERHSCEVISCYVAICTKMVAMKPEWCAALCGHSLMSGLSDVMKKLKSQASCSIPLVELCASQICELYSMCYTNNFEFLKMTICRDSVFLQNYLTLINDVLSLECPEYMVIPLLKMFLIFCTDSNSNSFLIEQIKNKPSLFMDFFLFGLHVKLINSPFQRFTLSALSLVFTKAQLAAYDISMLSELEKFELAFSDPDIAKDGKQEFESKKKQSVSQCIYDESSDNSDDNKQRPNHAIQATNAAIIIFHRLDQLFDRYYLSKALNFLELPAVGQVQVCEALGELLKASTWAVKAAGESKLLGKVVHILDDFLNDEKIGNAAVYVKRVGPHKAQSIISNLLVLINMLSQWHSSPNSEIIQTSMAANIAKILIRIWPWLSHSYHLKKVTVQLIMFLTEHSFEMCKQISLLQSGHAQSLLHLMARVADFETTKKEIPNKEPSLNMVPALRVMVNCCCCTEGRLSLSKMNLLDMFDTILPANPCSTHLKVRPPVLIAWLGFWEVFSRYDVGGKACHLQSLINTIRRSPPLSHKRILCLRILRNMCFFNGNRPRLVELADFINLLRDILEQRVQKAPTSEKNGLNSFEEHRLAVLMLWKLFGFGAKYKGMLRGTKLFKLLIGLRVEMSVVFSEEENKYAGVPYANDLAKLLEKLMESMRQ
Kind of test: pull-down; GST-Rcd4 held on glutathione-sepharose 4B beads, MBP-tagged Ana3 fragment added, 1 h at 4°C; 20 mM Tris pH 7.5, 200 mM NaCl, 1 mM DTT, 10% glycerol; SDS-PAGE (Coomassie) and anti-MBP Western blot. The note with it: both partners purified. On the technique in general: A western blot detects proteins with antibodies after separation by electrophoresis.

In test [2] the target is T2, GST-tagged full-length Ana3 (Drosophila melanogaster, UniProt A1Z8X3 1-1977).
T2 construct: Ana3, Drosophila melanogaster; also called GST::Ana3; GST-Ana3; source: S. cerevisiae (plasmid pMG1): coexpressed with 6xHis-Rcd4, in crude extract; also expressed alone and purified on glutathione beads
Kind of test: pull-down; full-length GST-Ana3 purified from S. cerevisiae incubated with MBP-Rcd4 purified from E. coli; GST::Ana3 purified, SDS-PAGE (Coomassie) and Western blot for MBP::Rcd4. To be noted: both partners purified.

B1: GST-tagged Rcd4 (natural protein, Drosophila melanogaster, UniProt Q9VLM6 1-199, looked up)
chain: MPHKRRNRVHANQRNFTARRVSVAKLSSAPPNVLVESCNGSHADNSSPDSPKAKEGAMTNGKNPEIKLAVPKCNTTVRKQNEAHIISNIKLDMNLNKDSNFIAPQITKKMNFAPNRVVFGVLVPLNVNDSVLVPHNRKPDALKHTSKESESCKAISEPQLADYAEKVDPMIMAVKEPVLHLDWEPGPFDFFGAYRRTYN
notes: Rcd4, Drosophila melanogaster; 199 amino acid protein; also called GST::Rcd4; GST-Rcd4; source: E. coli Rosetta BL21(DE3), purified on glutathione-sepharose 4B beads; not shown: GST, N-terminal, kept
Turning to B1, the binding result in test [1] is recorded as “binds”.

B2: MBP-tagged Rcd4 (natural protein, Drosophila melanogaster, UniProt Q9VLM6 1-199, looked up)
chain: MPHKRRNRVHANQRNFTARRVSVAKLSSAPPNVLVESCNGSHADNSSPDSPKAKEGAMTNGKNPEIKLAVPKCNTTVRKQNEAHIISNIKLDMNLNKDSNFIAPQITKKMNFAPNRVVFGVLVPLNVNDSVLVPHNRKPDALKHTSKESESCKAISEPQLADYAEKVDPMIMAVKEPVLHLDWEPGPFDFFGAYRRTYN
notes: Rcd4, Drosophila melanogaster; 199 amino acid protein; also called MBP::Rcd4; MBP-Rcd4; source: E. coli Rosetta BL21(DE3), purified; not shown: MBP, N-terminal, kept
On to B2, for which the binding result in test [2] is listed as “binds”.
